# US20230322887A1 (SHANGHAI MINWEI BIOTECHNOLOGY, published 2023)
# Experiments:
# human glucagon receptor = human glucagon receptor (human, UniProt P47871 26-477); experiment: cell-based or functional assay
# human GLP-1 receptor = human GLP-1 receptor (human, UniProt P43220 24-463); experiment: cell-based or functional assay
# human glucagon receptor, sequence (P47871 26-477): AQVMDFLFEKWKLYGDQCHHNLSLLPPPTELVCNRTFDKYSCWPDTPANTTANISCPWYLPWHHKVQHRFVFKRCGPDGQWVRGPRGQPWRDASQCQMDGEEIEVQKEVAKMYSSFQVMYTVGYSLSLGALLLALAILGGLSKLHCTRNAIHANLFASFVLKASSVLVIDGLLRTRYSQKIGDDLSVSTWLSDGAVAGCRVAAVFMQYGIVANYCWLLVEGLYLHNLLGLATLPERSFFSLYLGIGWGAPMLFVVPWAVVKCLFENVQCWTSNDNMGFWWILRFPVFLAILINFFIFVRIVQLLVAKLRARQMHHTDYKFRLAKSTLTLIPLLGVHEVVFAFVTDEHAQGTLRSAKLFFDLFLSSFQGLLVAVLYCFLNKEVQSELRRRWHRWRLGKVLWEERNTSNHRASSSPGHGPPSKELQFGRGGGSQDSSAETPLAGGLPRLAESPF
Molecule,EC50 human glucagon-R (CRE-luciferase reporter cells) (human glucagon receptor),"% RLUGlucagon (CRE-luciferase reporter, against the 100 ng/ml glucagon positive control) (human glucagon receptor)","% RLUGLP-1 (CRE-luciferase reporter, against the 100 ng/ml GLP-1 positive control) (human GLP-1 receptor)"
GLP-1 (from UniProt P01275 92-128) (ligand),> 1000 µM,,
HSQGTFTSDYSKYLDEQAAKEFIAWLIAGGPSSGAPPPS [GLP-1/glucagon dual agonist polypeptide expressed by clone 3D9],,197%,286%
HSQGTFTSDYSKYLDEQRAKEFVAWLIAGGPSSGAPPPS [GLP-1/glucagon dual agonist polypeptide expressed by clone 12C6],,112%,183%
HSQGTFTSDYSKYLDEQRAKDFIAWLIAGGPSSGAPPPS [GLP-1/glucagon dual agonist polypeptide expressed by clone 6B7],,156%,123%
